T1: PUF4 RNA-binding domain (Saccharomyces cerevisiae, UniProt P25339 537-888)
T1 sequence: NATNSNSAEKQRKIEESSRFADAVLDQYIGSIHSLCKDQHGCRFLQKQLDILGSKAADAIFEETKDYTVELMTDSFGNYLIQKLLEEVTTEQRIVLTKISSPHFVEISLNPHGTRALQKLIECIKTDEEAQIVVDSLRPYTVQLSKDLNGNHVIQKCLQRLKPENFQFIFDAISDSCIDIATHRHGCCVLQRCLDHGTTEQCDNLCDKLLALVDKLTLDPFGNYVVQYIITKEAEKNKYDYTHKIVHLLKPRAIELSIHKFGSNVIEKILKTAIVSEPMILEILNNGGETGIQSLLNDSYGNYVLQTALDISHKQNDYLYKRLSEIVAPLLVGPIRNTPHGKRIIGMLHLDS


Molecular target: T1, PUF4 RNA-binding domain
Experiment: Mg; RNA-MaP; 20 mM Na-HEPES pH 7.4, 30 mM KOAc, 0.75 mM MgCl2, 0.1% Tween-20, 5% glycerol, 0.1 mg/mL BSA, 2 mM DTT; 25 C; 0.0125-409.6 nM protein
Conditions: tags: N-His6-TEV cleaved; C-SNAP kept, Cy3B-labelled; label: tethered on chip by stalled RNA polymerase

Row | Binder | Kd [nM]
1 | UCUCUUUGUGUAUAAUCUCUU (ssRNA) [Ib_S1_P4E.1_K4.1_C4.1_H4.1_[A4G]_A4.1_F4.1_[T8A]_T4.1] | 11.4
2 | UCUCUUUGUCUAUAAUCUCUU (ssRNA) [Ib_S1_P4E.1_K4.1_C4.1_H4.1_[A4C]_A4.1_F4.1_[T8A]_T4.1] | 1620
3 | UCUCUUGGUAUAUUGUCUCUU (ssRNA) [Ib_S1_P4E.1_K4.1_C4.1_H4.1_[T1G]_A4.1_F4.1_[A9G]_T4.1] | 690
4 | UCUCUUUGUUUAUAAUCUCUU (ssRNA) [Ib_S1_P4E.1_K4.1_C4.1_H4.1_[A4T]_A4.1_F4.1_[T8A]_T4.1] | 495
5 | Ic_S2_P5E.1_K5.1_C5.1_H5.1_A5.1_[T5C]_[T6A]_[A7C]_F5.1_[T8C]_[T9C]_[A10C]_T5.1 (ssRNA) RNA: UUUGAUUAAUAUGAUAUCGUUCUUUCUUGUACACCCCUUCUUUCUCGAUAUCAUAUUAAUCUUU | 67.3
6 | Ic_S2_P5E.1_K5.1_C5.1_H5.1_A5.1_[T5C]_[T6C]_F5.1_[A10T]_T5.1 (ssRNA) RNA: UUUGAUUAAUAUGAUAUCGUUCUUUCUUGUACCAUUUUUCUUUCUCGAUAUCAUAUUAAUCUUU | 2.17
7 | Ic_S2_P5E.1_K5.1_C5.1_H5.1_A5.1_[T5C]_[T6C]_F5.1_[T8G]_[T9C]_[A10T]_T5.1 (ssRNA) RNA: UUUGAUUAAUAUGAUAUCGUUCUUUCUUGUACCAGCUUUCUUUCUCGAUAUCAUAUUAAUCUUU | 496
8 | Ic_S2_P5E.1_K5.1_C5.1_H5.1_A5.1_[T5G]_[A7C]_F5.1_[T9G]_[A10T]_T5.1 (ssRNA) RNA: UUUGAUUAAUAUGAUAUCGUUCUUUCUUGUAGUCUGUUUCUUUCUCGAUAUCAUAUUAAUCUUU | 60.9
9 | Ic_S2_P5E.1_K5.1_C5.1_H5.1_A5.1_[T5C]_[T6C]_[A7C]_F5.1_[T8G]_[T9C]_[A10C]_T5.1 (ssRNA) RNA: UUUGAUUAAUAUGAUAUCGUUCUUUCUUGUACCCGCCUUCUUUCUCGAUAUCAUAUUAAUCUUU | 1000
10 | Ic_S2_P5E.1_K5.1_C5.1_H5.1_A5.1_[T5A]_[T6A]_[A7T]_F5.1_[A10T]_T5.1 (ssRNA) RNA: UUUGAUUAAUAUGAUAUCGUUCUUUCUUGUAAAUUUUUUCUUUCUCGAUAUCAUAUUAAUCUUU | 17.4
11 | Ic_S2_P5E.1_K5.1_C5.1_H5.1_A5.1_[T6A]_[A7C]_F5.1_[T9A]_[A10G]_T5.1 (ssRNA) RNA: UUUGAUUAAUAUGAUAUCGUUCUUUCUUGUAUACUAGUUCUUUCUCGAUAUCAUAUUAAUCUUU | 1.41
12 | Ic_S2_P5E.1_K5.1_C5.1_H5.1_A5.1_[T5A]_[A7T]_F5.1_[T8G]_[T9C]_[A10C]_T5.1 (ssRNA) RNA: UUUGAUUAAUAUGAUAUCGUUCUUUCUUGUAAUUGCCUUCUUUCUCGAUAUCAUAUUAAUCUUU | 622
13 | Ic_S2_P5E.1_K5.1_C5.1_H5.1_A5.1_[T5C]_[T6A]_F5.1_[T8A]_[T9A]_[A10T]_T5.1 (ssRNA) RNA: UUUGAUUAAUAUGAUAUCGUUCUUUCUUGUACAAAAUUUCUUUCUCGAUAUCAUAUUAAUCUUU | 8.8
14 | Ic_S2_P5E.1_K5.1_C5.1_H5.1_A5.1_[T5A]_[T6C]_[A7T]_F5.1_[T8G]_[T9C]_[A10T]_T5.1 (ssRNA) RNA: UUUGAUUAAUAUGAUAUCGUUCUUUCUUGUAACUGCUUUCUUUCUCGAUAUCAUAUUAAUCUUU | 189
15 | Ic_S2_P5E.1_K5.1_C5.1_H5.1_A5.1_[T5A]_[A7G]_F5.1_[T8G]_T5.1 (ssRNA) RNA: UUUGAUUAAUAUGAUAUCGUUCUUUCUUGUAAUGGUAUUCUUUCUCGAUAUCAUAUUAAUCUUU | 48.9
16 | Ic_S2_P5E.1_K5.1_C5.1_H5.1_A5.1_[T5C]_[T6C]_F5.1_[T8G]_[A10C]_T5.1 (ssRNA) RNA: UUUGAUUAAUAUGAUAUCGUUCUUUCUUGUACCAGUCUUCUUUCUCGAUAUCAUAUUAAUCUUU | 192
17 | Ic_S2_P5E.1_K5.1_C5.1_H5.1_A5.1_[T6A]_[A7G]_F5.1_[T8C]_[T9C]_[A10T]_T5.1 (ssRNA) RNA: UUUGAUUAAUAUGAUAUCGUUCUUUCUUGUAUAGCCUUUCUUUCUCGAUAUCAUAUUAAUCUUU | 61.4
18 | Ic_S2_P5E.1_K5.1_C5.1_H5.1_A5.1_[T5G]_[T6C]_[A7T]_F5.1_[T8A]_[A10T]_T5.1 (ssRNA) RNA: UUUGAUUAAUAUGAUAUCGUUCUUUCUUGUAGCUAUUUUCUUUCUCGAUAUCAUAUUAAUCUUU | 43.1
19 | Ic_S2_P5E.1_K5.1_C5.1_H5.1_A5.1_[T5C]_[T6C]_[A7T]_F5.1_[T9G]_[A10G]_T5.1 (ssRNA) RNA: UUUGAUUAAUAUGAUAUCGUUCUUUCUUGUACCUUGGUUCUUUCUCGAUAUCAUAUUAAUCUUU | 210
20 | Ic_S2_P5E.1_K5.1_C5.1_H5.1_A5.1_[T5C]_[T6A]_F5.1_[A10C]_T5.1 (ssRNA) RNA: UUUGAUUAAUAUGAUAUCGUUCUUUCUUGUACAAUUCUUCUUUCUCGAUAUCAUAUUAAUCUUU | 6.33
21 | Ic_S2_P5E.1_K5.1_C5.1_H5.1_A5.1_[T5C]_[T6G]_[A7C]_F5.1_[T8C]_[T9C]_[A10C]_T5.1 (ssRNA) RNA: UUUGAUUAAUAUGAUAUCGUUCUUUCUUGUACGCCCCUUCUUUCUCGAUAUCAUAUUAAUCUUU | 140
22 | Ic_S2_P5E.1_K5.1_C5.1_H5.1_A5.1_[T6G]_[A7T]_F5.1_[T9C]_[A10C]_T5.1 (ssRNA) RNA: UUUGAUUAAUAUGAUAUCGUUCUUUCUUGUAUGUUCCUUCUUUCUCGAUAUCAUAUUAAUCUUU | 11.9
23 | Ic_S2_P5E.1_K5.1_C5.1_H5.1_A5.1_[T5G]_[A7T]_F5.1_[T8G]_[T9C]_[A10T]_T5.1 (ssRNA) RNA: UUUGAUUAAUAUGAUAUCGUUCUUUCUUGUAGUUGCUUUCUUUCUCGAUAUCAUAUUAAUCUUU | 436
